The values below come from patent publication US20170030911.

In data set [1] the target is β-casein (in 12% β-casein Zymogram Ready Gels, Bio-Rad).
In data set [2] the target is T1, recombinant human decorin, P07585.
T1 chain: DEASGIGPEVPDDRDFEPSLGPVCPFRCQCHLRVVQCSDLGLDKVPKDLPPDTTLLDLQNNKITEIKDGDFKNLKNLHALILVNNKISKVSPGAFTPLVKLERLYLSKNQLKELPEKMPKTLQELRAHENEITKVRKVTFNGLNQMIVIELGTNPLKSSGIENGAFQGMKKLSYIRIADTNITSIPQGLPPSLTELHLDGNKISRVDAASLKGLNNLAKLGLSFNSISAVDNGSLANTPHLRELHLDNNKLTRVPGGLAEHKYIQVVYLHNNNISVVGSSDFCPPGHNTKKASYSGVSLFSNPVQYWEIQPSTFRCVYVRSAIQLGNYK

The target of data set [3] is recombinant human aggrecan (G1-IGD-G2 domains), P16112.
Chain of recombinant human aggrecan (G1-IGD-G2 domains), P16112 (P16112 20-675): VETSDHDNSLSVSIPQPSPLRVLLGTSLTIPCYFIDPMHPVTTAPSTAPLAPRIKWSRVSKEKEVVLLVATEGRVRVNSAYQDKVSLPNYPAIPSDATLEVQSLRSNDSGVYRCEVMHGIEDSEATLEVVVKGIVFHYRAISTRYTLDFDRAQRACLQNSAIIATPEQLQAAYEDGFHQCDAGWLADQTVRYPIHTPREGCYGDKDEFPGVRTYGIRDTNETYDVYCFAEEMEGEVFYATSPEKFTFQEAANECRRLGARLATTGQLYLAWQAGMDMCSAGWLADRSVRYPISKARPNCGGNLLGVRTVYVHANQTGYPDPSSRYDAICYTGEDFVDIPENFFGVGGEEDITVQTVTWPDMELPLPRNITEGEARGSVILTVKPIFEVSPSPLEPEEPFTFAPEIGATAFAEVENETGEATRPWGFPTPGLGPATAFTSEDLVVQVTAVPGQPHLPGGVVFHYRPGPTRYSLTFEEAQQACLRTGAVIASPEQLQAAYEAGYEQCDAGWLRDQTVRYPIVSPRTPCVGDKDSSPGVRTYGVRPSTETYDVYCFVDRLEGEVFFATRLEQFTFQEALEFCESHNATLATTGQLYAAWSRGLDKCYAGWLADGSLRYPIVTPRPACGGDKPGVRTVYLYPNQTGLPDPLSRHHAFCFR
Data set [4] deals with native bovine aggrecan, fully glycosylated, P13608.
Chain of native bovine aggrecan, fully glycosylated, P13608 (P13608 17-2364): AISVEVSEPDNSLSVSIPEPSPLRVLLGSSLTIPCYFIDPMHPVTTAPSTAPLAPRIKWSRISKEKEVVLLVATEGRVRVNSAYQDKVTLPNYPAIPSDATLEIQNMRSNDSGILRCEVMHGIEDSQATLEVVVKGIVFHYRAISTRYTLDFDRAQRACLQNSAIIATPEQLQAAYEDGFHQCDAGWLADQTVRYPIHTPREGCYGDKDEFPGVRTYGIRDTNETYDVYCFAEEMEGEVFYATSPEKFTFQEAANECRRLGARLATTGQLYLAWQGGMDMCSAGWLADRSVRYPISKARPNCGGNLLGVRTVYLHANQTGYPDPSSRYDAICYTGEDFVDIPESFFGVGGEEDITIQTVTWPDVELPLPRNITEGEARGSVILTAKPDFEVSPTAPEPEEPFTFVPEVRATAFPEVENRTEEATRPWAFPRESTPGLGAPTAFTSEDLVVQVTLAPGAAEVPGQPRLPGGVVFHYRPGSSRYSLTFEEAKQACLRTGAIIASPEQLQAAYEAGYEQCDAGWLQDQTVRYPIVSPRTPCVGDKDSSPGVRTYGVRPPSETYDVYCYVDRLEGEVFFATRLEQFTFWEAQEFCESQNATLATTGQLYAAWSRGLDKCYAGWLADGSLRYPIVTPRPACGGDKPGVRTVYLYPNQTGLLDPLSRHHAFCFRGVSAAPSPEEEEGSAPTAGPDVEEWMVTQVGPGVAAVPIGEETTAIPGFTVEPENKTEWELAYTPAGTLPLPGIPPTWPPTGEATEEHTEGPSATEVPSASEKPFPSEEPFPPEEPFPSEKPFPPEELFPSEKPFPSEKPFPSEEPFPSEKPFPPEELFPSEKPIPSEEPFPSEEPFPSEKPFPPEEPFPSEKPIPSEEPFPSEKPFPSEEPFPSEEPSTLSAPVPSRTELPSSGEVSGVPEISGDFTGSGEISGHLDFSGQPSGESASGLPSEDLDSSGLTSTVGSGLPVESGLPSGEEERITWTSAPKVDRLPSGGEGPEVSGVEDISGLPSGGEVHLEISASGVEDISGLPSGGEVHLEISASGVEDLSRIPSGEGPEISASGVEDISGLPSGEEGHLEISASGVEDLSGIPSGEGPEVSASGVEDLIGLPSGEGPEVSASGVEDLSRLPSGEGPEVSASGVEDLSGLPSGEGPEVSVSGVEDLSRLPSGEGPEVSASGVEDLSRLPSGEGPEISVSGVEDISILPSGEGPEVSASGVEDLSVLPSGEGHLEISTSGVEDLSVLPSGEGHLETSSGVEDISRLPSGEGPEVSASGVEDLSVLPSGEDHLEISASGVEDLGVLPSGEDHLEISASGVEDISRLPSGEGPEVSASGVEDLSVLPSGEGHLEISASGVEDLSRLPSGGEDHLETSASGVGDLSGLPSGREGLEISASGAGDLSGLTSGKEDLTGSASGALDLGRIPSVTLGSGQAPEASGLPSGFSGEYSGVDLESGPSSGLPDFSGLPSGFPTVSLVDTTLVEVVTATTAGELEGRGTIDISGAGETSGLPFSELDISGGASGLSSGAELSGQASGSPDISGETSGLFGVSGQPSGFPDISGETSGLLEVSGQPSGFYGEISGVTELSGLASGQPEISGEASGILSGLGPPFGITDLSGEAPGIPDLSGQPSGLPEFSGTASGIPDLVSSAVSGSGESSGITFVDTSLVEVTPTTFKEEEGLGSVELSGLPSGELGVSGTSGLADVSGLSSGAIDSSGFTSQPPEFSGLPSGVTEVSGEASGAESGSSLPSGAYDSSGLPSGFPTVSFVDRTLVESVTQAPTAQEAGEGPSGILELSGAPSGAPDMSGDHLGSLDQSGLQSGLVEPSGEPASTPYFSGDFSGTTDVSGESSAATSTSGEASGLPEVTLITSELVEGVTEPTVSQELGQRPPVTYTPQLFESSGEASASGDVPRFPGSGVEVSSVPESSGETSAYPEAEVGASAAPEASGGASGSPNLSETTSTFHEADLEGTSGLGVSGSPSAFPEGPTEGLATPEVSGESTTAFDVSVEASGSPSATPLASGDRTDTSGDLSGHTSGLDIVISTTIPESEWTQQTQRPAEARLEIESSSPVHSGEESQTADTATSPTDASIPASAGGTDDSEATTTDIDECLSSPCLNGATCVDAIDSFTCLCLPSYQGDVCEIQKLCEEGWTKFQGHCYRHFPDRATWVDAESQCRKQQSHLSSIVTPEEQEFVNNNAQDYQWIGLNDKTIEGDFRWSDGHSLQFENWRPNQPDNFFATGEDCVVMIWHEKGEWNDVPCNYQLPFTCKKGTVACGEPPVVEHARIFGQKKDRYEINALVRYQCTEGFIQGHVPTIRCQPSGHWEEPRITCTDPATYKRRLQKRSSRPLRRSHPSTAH
Data set [5] has as its target T2, native bovine biglycan, P21809.
T2 chain: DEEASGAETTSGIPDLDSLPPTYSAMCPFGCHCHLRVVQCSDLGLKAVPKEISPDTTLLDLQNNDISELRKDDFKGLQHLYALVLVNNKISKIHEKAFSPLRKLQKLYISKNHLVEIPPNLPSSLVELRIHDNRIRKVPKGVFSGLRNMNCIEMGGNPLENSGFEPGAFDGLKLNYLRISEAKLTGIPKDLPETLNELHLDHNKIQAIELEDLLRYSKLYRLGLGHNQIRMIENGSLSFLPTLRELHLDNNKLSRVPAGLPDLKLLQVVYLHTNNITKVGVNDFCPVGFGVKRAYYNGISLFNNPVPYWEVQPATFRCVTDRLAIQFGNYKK

The target in data set [6] is recombinant human neurocan, O14594.
Chain of recombinant human neurocan, O14594 (O14594 23-1321): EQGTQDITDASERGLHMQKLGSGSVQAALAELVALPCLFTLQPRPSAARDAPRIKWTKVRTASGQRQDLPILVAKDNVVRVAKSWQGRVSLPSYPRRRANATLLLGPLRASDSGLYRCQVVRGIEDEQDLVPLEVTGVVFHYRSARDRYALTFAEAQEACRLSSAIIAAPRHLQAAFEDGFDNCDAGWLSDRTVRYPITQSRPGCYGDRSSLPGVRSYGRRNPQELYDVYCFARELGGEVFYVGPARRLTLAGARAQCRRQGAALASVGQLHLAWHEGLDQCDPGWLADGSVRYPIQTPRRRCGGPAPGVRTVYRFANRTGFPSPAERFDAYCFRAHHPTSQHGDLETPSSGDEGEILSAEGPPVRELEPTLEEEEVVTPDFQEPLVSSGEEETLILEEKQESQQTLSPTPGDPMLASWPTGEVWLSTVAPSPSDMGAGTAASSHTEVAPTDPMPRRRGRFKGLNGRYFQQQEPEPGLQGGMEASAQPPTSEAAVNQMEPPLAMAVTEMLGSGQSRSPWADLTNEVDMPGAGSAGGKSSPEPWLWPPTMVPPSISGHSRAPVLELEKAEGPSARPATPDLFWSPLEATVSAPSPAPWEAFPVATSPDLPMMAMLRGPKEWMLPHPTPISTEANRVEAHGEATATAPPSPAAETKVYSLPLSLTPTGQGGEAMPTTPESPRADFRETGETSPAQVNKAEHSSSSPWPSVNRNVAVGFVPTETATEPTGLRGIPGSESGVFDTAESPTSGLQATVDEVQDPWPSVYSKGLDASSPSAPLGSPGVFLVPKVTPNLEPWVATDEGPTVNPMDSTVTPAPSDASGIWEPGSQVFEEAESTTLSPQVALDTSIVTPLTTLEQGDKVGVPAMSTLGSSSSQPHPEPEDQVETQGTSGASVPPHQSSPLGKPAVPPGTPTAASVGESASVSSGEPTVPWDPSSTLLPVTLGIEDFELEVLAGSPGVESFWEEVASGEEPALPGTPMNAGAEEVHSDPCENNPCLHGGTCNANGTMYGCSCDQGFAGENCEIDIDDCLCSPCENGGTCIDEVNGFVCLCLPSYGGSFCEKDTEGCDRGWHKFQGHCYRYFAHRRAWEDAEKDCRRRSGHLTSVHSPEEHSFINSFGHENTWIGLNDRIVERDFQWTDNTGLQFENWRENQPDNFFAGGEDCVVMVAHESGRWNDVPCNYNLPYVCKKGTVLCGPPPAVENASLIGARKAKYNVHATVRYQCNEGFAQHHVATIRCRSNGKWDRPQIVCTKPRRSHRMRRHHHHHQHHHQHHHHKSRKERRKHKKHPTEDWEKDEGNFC
Data set [7] deals with native human plasma fibronectin, P02751.
Data set [8] concerns the target T3, recombinant human biglycan, P21810.
T3 chain: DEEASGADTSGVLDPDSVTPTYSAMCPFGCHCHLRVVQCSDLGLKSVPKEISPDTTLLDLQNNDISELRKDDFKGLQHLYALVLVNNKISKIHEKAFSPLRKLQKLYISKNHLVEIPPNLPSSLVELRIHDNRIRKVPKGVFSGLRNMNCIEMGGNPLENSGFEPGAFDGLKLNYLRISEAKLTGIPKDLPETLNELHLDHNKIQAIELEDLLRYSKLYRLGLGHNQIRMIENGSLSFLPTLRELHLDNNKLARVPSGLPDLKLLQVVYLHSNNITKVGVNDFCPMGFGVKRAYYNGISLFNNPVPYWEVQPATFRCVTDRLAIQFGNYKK

Data set [9] has as its target T4, recombinant human brevican, Q96GW7.
T4 chain: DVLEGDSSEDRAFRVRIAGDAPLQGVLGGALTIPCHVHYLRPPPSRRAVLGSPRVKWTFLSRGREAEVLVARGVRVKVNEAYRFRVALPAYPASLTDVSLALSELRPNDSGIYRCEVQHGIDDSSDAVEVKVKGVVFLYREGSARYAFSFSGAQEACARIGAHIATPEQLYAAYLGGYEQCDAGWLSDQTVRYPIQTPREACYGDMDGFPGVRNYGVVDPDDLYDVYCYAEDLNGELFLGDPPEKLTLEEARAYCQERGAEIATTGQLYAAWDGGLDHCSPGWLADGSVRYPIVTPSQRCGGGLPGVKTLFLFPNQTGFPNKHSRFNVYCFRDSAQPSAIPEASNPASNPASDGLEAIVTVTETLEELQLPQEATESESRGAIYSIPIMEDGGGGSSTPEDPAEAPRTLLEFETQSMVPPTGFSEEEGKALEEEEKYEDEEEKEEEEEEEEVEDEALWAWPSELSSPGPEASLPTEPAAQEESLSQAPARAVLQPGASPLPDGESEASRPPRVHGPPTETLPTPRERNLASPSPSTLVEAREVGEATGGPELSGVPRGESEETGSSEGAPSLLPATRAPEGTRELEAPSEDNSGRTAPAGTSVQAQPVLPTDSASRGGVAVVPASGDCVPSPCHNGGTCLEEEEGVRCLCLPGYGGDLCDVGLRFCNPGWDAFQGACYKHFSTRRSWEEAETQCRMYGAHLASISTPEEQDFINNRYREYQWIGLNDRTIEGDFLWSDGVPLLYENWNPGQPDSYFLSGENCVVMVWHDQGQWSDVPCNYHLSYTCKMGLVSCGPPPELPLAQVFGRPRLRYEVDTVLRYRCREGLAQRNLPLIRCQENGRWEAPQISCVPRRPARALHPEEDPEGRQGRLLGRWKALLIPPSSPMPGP

In data set [10] the target is T5, recombinant human E-cadherin, P12830.
T5 chain: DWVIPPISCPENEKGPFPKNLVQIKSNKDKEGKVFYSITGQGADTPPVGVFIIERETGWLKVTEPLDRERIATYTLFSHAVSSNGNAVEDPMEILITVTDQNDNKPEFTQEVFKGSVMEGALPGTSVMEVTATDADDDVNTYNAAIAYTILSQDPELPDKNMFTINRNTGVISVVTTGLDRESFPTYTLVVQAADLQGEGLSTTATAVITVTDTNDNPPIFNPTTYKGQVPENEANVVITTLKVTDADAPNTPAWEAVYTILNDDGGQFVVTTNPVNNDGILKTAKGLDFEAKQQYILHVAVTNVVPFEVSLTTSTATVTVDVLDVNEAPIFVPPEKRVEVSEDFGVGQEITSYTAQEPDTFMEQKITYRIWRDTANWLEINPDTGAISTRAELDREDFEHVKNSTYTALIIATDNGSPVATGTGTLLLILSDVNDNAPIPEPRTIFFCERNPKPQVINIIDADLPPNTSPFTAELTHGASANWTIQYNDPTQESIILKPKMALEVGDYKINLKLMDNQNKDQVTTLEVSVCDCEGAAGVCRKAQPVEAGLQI

Data set [11] deals with T6, native bovine decorin, P21793.
T6 chain: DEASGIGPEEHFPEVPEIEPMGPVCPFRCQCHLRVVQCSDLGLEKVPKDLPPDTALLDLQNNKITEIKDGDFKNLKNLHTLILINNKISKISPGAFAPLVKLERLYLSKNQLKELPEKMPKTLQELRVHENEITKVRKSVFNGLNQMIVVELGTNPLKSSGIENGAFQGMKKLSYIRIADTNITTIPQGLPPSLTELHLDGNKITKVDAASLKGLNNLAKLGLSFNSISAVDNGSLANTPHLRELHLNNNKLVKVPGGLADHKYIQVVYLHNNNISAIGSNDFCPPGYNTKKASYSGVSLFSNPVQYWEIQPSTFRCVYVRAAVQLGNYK

Data set [12] has as its target recombinant human versican, P13611.

Numbering of substitutions follows the chain as printed. Names may count otherwise.

B1: Borrelia burgdorferi HtrA (BB0104, BbHtrA), recombinant wild type mature protein (amino acids 38-474), His-tagged, made in E. coli (protein)
chain: EEKDNTVRALQDSFREVSKKILPSSVEVHATGVIKQSFPIPFFFFDMPEFDSERKSNWAGSGVIIGRDSQKKSLFYVVTNSHVVDKATELEVVSYDKKKHKAKLIGKDEKKDIALISFESDDATIKVADLGDSDKLEIGDWVMAVGSPFQFSFTVTAGIVSGLQRSANPNLQSRNLFIQTDAAINRGNSGGPLVNIKGEVIGINAWIASNSGGNIGLGFAIPVNNIKSTVDFFLKGKKIESAWLGISFYPLKTRDSEVLKSLGVESNDVSAAIIASLYPGSPAVKSGLRAGDIIMKVNGVSMSVFQDVTSYISDFYAGEKVNVEILRGNVKKNIEIVLAVRPKDKELSSSKMLPGFVVYPLVEDIKAQLNLRNWIKGVVVDYIDKNLASNIKMKSGDVILSVNSKSVSNLREFYDALEVGKNTYKILRGNDSFKITF
In the case of B1, in [1], the β-casein zymography entry was “Recombinant BbHtrA was proteolytically active against β-casein as evidenced by clearing around the protein band”. The Proteolytic activity result in [2], in data set [3], in data set [4], in data set [5], in [6] and in data set [7] was “+” throughout. Further, the Proteolytic activity entry (in data set [8]; in data set [9]; in [10]; with native bovine casein; in data set [11]; in data set [12]) was “+” throughout.

B2: Borrelia burgdorferi HtrA (BB0104, BbHtrA^S226A), recombinant inactive mutant, mature protein (amino (protein)
chain: B1 chain with S189A
On to B2, for which the “proteolytic fragments on silver-stained SDS-PAGE” value in data set [3] is “incubation of recombinant aggrecan (FIG. 4A, lane 1) alone or with the inactive mutant (FIG. 4A, lane 6) failed to generate these fragments”.
